# Experimental data published in article PMC13562413, “FoxO transcription factors coordinate the urea cycle and gluconeogenesis by controlling Ass1”.
# B1: Ass1 FoxO BS1 mut (dsDNA)
# DNA 1: GTGTACCCAAGGACACATCTACTTTCTTTCTGATTTTGGATCCTTTGTTGGGTG
# DNA 2: CACCCAACAAAGGATCCAAAATCAGAAAGAAAGTAGATGTGTCCTTGGGTACAC
# Molecular target: GST-FoxO1-DBD (Mus musculus, UniProt Q9R1E0 157-268)
# Assay: EMSA; 10 mM HEPES pH 7.8, 50 mM KCl, 1 mM EDTA, 5 mM MgCl2, 10% glycerol, 5 mM DTT, 0.4 ug/mL poly(dI-dC), 30 min on ice; 4.6% PAGE in TBE
# Conditions: protein: recombinant; tags: N-terminal GST (pGEX-4T1); label: 32P (alpha-32P dCTP, Klenow fill-in); blunt after fill-in of 5' overhangs
# Chain of GST-FoxO1-DBD (Q9R1E0 157-268): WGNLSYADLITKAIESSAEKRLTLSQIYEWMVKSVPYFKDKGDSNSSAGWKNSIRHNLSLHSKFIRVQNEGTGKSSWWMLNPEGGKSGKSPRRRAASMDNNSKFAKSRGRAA
binder,measurement,value
B1,binding result,no binding
